Assay: yeast display, Sf9 membrane polyspecificity reagent, FACS + sequencing; frameworks hold sequencing errors
Outline: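 Using colony PCR, genes from sorted yeast display clones were amplified, then sequenced on MiSeq at 2 × 250 and filtered by CDR length. The clones had been stained with 10% biotinylated, detergent-solubilized Sf9 membrane reagent for 1 hour at 4 °C and sorted by FACS into low and high (top ~1%) gates on anti-HA and streptavidin fluorescence. Polyreactivity labels come from the gate of origin.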

Sequence | polyreactivity (PSR sort gate)
QVQLVESGGGLVQAGGSLRLSCAASGRIFGGYAMGWYRQAPGKERELVAAITSSGSTNYADSVKGRFTISRDNAKNTVYLQMNSLKPEDTAVYYCATDFKTVYYWWGMDYWGQGTQVTVSS | low polyreactivity
QVQLVESGGGLVQAGGSLRLSCAASGRIFGGYEMGWYRQAPGKERELVAAITSDSSTTYADSVKGRFTISRDNAKNTVYLQMNSLKPEDTAVYYCAVQVNGPVFYRPYRDYDYWGQGTQVTVSS | low polyreactivity
QVQLVESGGGLVQAGGSLRLSCAASGRIFGGYGMGWYRPAPGKQRELVAAISSGGNTKYADSVKGRFTISRDNAKNTVYLQMNSLKPEDTAVYHCAAKFAQPDYRYDYWGQGTQVTVSS | high polyreactivity
QVQLVESGGGLVQAGGSLRLSCAASGRIFGGYTMGWYRQAPGKEREFVAAITSSGGSTYYADSVKGRFTISRDNAKNTVYLQMYSLKPEETAVYYCAVDDYYYDYDYWGQGTQVTVSS | low polyreactivity
QVQLVESGGGLVQAGGSLRLSCAASGRIFGGYVMGWYRQAPGKERELVAAINGGGGSTYYADSVKGRFTISRDNAKNTVYLQMNSLKPEDTAVYYCMLVKRSQRKSTIDFDYWGQGTQVTVSS | high polyreactivity
QVQLVESGGGLVQAGGSLRLSCAASGRIFGHNAMGWYRQAPGKERELVAAISYRGCSTYYADSVKGRCTISRDNAKNTVYLQMNSLKPVDTAVYYCAARWNRGRYDYWGQGTEVTVSS | high polyreactivity
QVQLVESGGGLVQAGGSLRLSCAASGRIFGHYAMGWYRHAPGKERELVAAINWRGGSTYYADSVKGRFTISRDNAKNTVYVQMKSLKPEETGVYYCAADWTKARDSIYDYWGQGSQVTVSS | low polyreactivity
QVQLVESGGGLVQAGGSLRLSCAASGRIFGHYAMGWYRQAPGKERELVAAISQSGTNTYYADSVKGRFTISRDNAKNTVYLQMNSLKPEDTAVYYCAAKPPRRYQLMDYWGQGTQVTVSS | high polyreactivity
QVQLVESGGGLVQAGGSLRLSCAASGRIFGINAMGWYRQAPGKERELVAAIDSAGRTYYADSVKGRFTISRDNAKNTVYLQMNSLKPEDTAVYSCNKDHSLYEHNYWGQGTQVTVSS | low polyreactivity
QVQLVESGGGLVQAGGSLRLSCAASGRIFGIYAMRWYRQAPGKERELVAAISYSGGSTYYADSVKGRFTISRDNAKNTVYLQMNSLNPEDTAVYYCNADYYASYYPYYSIRLDYLGQGTQVTVSS | low polyreactivity
QVQLVESGGGLVQAGGSLRLSCAASGRIFGKNDMGWYRQAPGKEREFVATIDWSGGSTYYADSVKGRFTISRDNAKNTVYLQMNSLKPEDTAVYYCAASGWNRYLFDYWGQGTQVTVSS | low polyreactivity
QVQLVESGGGLVQAGGSLRLSCAASGRIFGKYVMGWYRQAPGKERELVAAISRSGGSTSYADSVKGRFTISRDNAKNTVYLQMNSLKPEDTAVYYCAASPAGYLAPRGYYWGQGTQVTVSS | high polyreactivity
QVQLVESGGGLVQAGGSLRLSCAASGRIFGKYVMVWYRQEPGKERELVAGISWSAGSTYYADSVKGRFTISRDTAKNTVYLQMNSLKPEDSAVYSCAAGLEGGYDYWGQGTEVTVSS | low polyreactivity
QVQLVESGGGLVQAGGSLRLSCAASGRIFGLYAMGWYRQAPGKERELVAAINRTGNTNYADSVKGRFTISRDNAKNTVYLQMNSLKPEDTAVYYCAARFPYWRRYDYWGQGTQVTVSS | high polyreactivity
QVQLVESGGGLVQAGGSLRLSCAASGRIFGLYAMGWYRQAPGKERELVAAISRGGGSTYYADSVKGRFTISRDNAKNTVYLQMNSLKPEDTAVYYCATGLGYFSRLDYWGQGTLVTVSS | low polyreactivity
QVQLVESGGGLVQAGGSLRLSCAASGRIFGLYAMGWYRQAPGKERELVAAISRGGGSTYYADSVKGRFTISRDNAKNTVYLQMNSLKPEDTAVYYCATGLGYFSRLDYWGQGTQVTVSS | low polyreactivity
QVQLVESGGGLVQAGGSLRLSCAASGRIFGLYAMGWYRQAPGKERELVAAISWSGGRTYYADSVKGRFTISRDNAKNTVYLQMNSLKPEDTAVYYCAARSYYRSQYGFDFWGQGTQVTVSS | high polyreactivity
QVQLVESGGGLVQAGGSLRLSCAASGRIFGLYAMGWYRQAPGKERELVAAITSSTGSTYYADSVKGRFTISRDNAKNTVYLQMNSLKPEDTAVYYCAADLYSPSIYGYIYYTWLDYWGQGTQVTVSS | high polyreactivity
QVQLVESGGGLVQAGGSLRLSCAASGRIFGLYAMGWYRQAPGKERELVASISQSGANTYYADSVKGRFTISRDNAKNTVYLQMNCQKPEDTAVSYCAAKRYDRYYYWVGYWGQGTQVIVSS | low polyreactivity
QVQLVESGGGLVQAGGSLRLSCAASGRIFGLYVLGGYRQAPGKERELVAAIDDSGGDTYDADSVKGRFTISRDNAKNTVYIQMNSLKPEDTAVYYCPADYWGYYYGGYYYLRDYWGQGTQVTVSS | high polyreactivity
QVQLVESGGGLVQAGGSLRLSCAASGRIFGPNAMGWYRQAPGKERELVAAISWSGSSTRYADSVKGRFTISRDNAKNTVYLQMNSLKPEDTAVYYCAARRQSPDRYTKYEYWGQGTQVTVSS | low polyreactivity
QVQLVESGGGLVQAGGSLRLSCAASGRIFGPNDMGWYRQAPGKDRELVAAISWSGSSTRYADSVKGRFTISRDNAKNTVYLQMNSLKPEDTAGYYCAADRYWHSVVRDEDYWGQGTQVTVSS | low polyreactivity

Sequence | polyreactivity (PSR sort gate)
QVQLVESGGGLVQAGGSLRLSCAASGRIFGPNDMGWYRQAPGKERELVAAITDSGDITYYADSVKGRFTISRDIAKNSVYLQMNSLKPEDTAVYYCAADHTYENEYWGQGTQVTVSS | low polyreactivity
QVQLVESGGGLVQAGGSLRLSCAASGRIFGPYAMGWYRQAPGKERELVAAIRASSSSTYYADSVKGRFTISRDNAKNTVYVQMNSLKPEDTAVYYCAADWYYGYAWKYGYWGQGTQVTVSS | low polyreactivity
QVQLVESGGGLVQAGGSLRLSCAASGRIFGPYAMGWYRQAPGKERELVAAISGRGSSTYYADSVKGRFTLSRDNAKNTVYLQMNSLKPEDTAVYYCAKYPTYSYDYWGQGTQVTVSS | high polyreactivity
QVQLVESGGGLVQAGGSLRLSCAASGRIFGPYAMGWYRQAPGKERELVASISYSRGSTYYADSVKGRFTISRDNANNTVYLQMNSLKPEDTAVYYCAKGGYWRGYNYWGQGSQVTVSS | low polyreactivity
QVQLVESGGGLVQAGGSLRLSCAASGRIFGPYTMGWYRQEPGKERELVAAITGRVVSTYYADSVKGRFTISRDNAKNTVYLQMNSLQPEDTAVYYCAARIYYYNTRGDYWAQGTQVTVSS | high polyreactivity
QVQLVESGGGLVQAGGSLRLSCAASGRIFGPYVMGWYRQAPGKERELVAAISTSGTSTYYADSVKGRFTISRDNAKNTVYLQMNSLKPEDTAVYDCGIRSGARHRLMDYWGQGTQVTVSS | low polyreactivity
QVQLVESGGGLVQAGGSLRLSCAASGRIFGQNAMGWYRQAPGKERELVAAITGSGGRTYYADSVKGRFTISRDNAKNTVYLQMNSQKPEDTAVYYCAVRVTSYYRTMDYWGQGTQVTVSS | low polyreactivity
QVQLVESGGGLVQAGGSLRLSCAASGRIFGQYAMAWYRHAPGKERELVAAITQRGGSTYYADSVKGRFTISRDNAKNTVYLQMNSLKPEDTAGYYCNKRYRFTGIRDPFDYWGQGTQVTVSS | low polyreactivity
QVQLVESGGGLVQAGGSLRLSCAASGRIFGQYAMGWYRQAPGKERELVAAISWRGGTTYYADSVKGRFTISRDNAKNTVYLQMNSLKPEDTAVYYCNADVWVYPYDYWGQGTQVTVSS | low polyreactivity
QVQLVESGGGLVQAGGSLRLSCAASGRIFGRNAMAWYRQAPGKERELVAAISTSGGTYYADSVKGRFTISRDNAKNTVYLQMISLKPEDTAVYYCNDRGRTQQRWVDYWGQRTQVTVSS | high polyreactivity
QVQLVESGGGLVQAGGSLRLSCAASGRIFGRNAMGWYRQAPGKERELVAAITYSGGRTYYADSVKGRFTISRDNAKNTVYLQMNSLKPEDTAVYYCAAYSFAYRYNYWGQGTQVTVSS | high polyreactivity
QVQLVESGGGLVQAGGSLRLSCAASGRIFGRNTMGWYRQAPGKEREFVAAITWSGGSTYYADSVKGRFTISRDNAKNTVYLQMNSLKPEDTAVYYCAAPSYYRYDYWGQGTQVTVSS | high polyreactivity
QVQLVESGGGLVQAGGSLRLSCAASGRIFGRYAMGWYRQAPGKERELVAAITSGGRTSYADSVKGRFTISRDNAKNTVYLQMNSLKPEDTSVYYCNVVSRNSIRFDYWGQGTQVTVSS | high polyreactivity
QVQLVESGGGLVQAGGSLRLSCAASGRIFGRYAMGWYRQAPGKERELVAAITSSGRTYYADSVKGRFTISRDNAKNTVYLQMNSLKPEDTAVYYCNAVARYTKYNYWGQGTQVTVSS | high polyreactivity
QVQLVESGGGLVQAGGSLRLSCAASGRIFGRYAMGWYRQAPGKERELVASITYRGGGTYYADSVKGRFTISRDNAKNTVYLQMNSLKAEDTAVYYCAAALSNVRNVRSPYDYWGQGTQVTVSS | high polyreactivity
QVQLVESGGGLVQAGGSLRLSCAASGRIFGRYVMGWYRQAPGKERELVAAITSGGSTYYADSVKGRFTISRDNAKNTVYLQMNSLKPEDTAVYYCATRLFYPRFYYWGQGTQVTVSS | high polyreactivity
QVQLVESGGGLVQAGGSLRLSCAASGRIFGRYVMGWYRQAPGKERELVAVITGGGTRTYYADSVKGRFTISRDNAKNTVYLQMNSLKPEDTAVYYCAAPYRPDVDYWGQGTQVTVSS | high polyreactivity
QVQLVESGGGLVQAGGSLRLSCAASGRIFGSNTLGWYRQAPGKEREMVAAISRRGGSTYYADSVKGRFTISRDNAKNTVYLQINSLKPEDTAVYYCAAVGTGSSLRYDYWGQGTQVTVSS | high polyreactivity
QVQLVESGGGLVQAGGSLRLSCAASGRIFGSYAMGWYRQAPGKEREFVAAISVGSGSTYYADSVKGRFTISRDNAKNTVYLQMNSLKPEDTAVYYCAAENLYIDPRDWYGTWDTGYYWGQGTQVTVSS | high polyreactivity
QVQLVESGGGLVQAGGSLRLSCAASGRIFGSYAMGWYRQAPGKERELVAAINWRGGSTFYADSVKGRFTISRDNAKNTVYLQMNSLKPEDTAVYSCARRGYRQSGDYWGQGTQVTVSS | low polyreactivity
QVQLVESGGGLVQAGGSLRLSCAASGRIFGSYAMGWYRQAPGKERELVAAISGDGDSTYYADSVKGRFTISRDNAKNTVYFQMNSLKPEDTAVYYCAAEPNVYFSVFVLFPSDYWGQGTQVTVSS | low polyreactivity
